Our source for the Kd values is article PMC6610666 (2019).

In this assay the target is mouse CBP TAZ1 (residues 340-439) (mouse, UniProt P45481 340-439). The assay is described as follows: ITC.
Sequence of mouse CBP TAZ1 (residues 340-439) (P45481 340-439): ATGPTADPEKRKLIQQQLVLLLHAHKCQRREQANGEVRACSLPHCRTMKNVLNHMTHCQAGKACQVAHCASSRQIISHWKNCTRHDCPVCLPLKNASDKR

Turning to HDYIYNLDESEGVCDLFD (domain or fragment) [human E2F4 transactivation domain (residues 390-407)], the equilibrium dissociation constant (Kd) (in general, the equilibrium constant for the complex coming apart) is 700 nM.
